Reference: US20050196753

System: recombinant Histone H3

How did the “methylation of Histone H3 (in vitro methylation assay, SDS-PAGE and film)” value turn out when “human coactivator-associated arginine methyltransferase 1 (hCARM1), full-length, purified from baculovirus infected insect cells” was run?
The value was “hCARM1 methylates Histone H3 efficiently”.
